Consider 125 sequences from the supplement of paper PMC9112550, “Optimization of the antimicrobial peptide Bac7 by deep mutational scanning” (BMC Biology, 2022).

For this series, the system named is Escherichia coli TOP10. In words: shrunken log2 fold change of peptide-encoding DNA abundance (4.5 h post-induction vs induction); higher = less antimicrobial activity (less host growth inhibition). Particulars: time post-induction: 4.5 h; library: site-saturation at positions 5, 18, 19, 20.
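Further: peptides expressed intracellularly from a pBAD plasmid library in pooled LB shake-flask culture, induced with 0.3% L-arabinose, DNA abundance read by NGS, three biological replicates, DESeq2 with apeglm shrinkage.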

Take RRIRQRPPRLPRPRPRPVMEPRP: the “shrunken log2 fold change” value is -0.028.
To RRIRRRPPRLPRPRPRPDSRPRP belongs 0.0229; to RRIRCRPPRLPRPRPRPVFVPRP, -0.136; to RRIRQRPPRLPRPRPRPAEHPRP, 0.166.
Next, RRIRFRPPRLPRPRPRPGEHPRP: -0.0294.
To RRIRNRPPRLPRPRPRPRKAPRP belongs 0.473; to RRIRVRPPRLPRPRPRPRHSPRP, 0.292; to RRIRARPPRLPRPRPRPHMEPRP, 0.157.
As for RRIRARPPRLPRPRPRPAIVPRP, the “shrunken log2 fold change” value is -0.123.
To RRIRRRPPRLPRPRPRPVWNPRP belongs 0.0425.
On to RRIRTRPPRLPRPRPRPKLRPRP, for which the “shrunken log2 fold change” value is -0.0516.
Next, RRIRVRPPRLPRPRPRPSHEPRP: -0.225; RRIRIRPPRLPRPRPRPELDPRP: 0.0332.
To RRIRERPPRLPRPRPRPLIYPRP belongs -0.682.
RRIRWRPPRLPRPRPRPKTWPRP: the “shrunken log2 fold change” value was determined as 0.325.
To RRIRRRPPRLPRPRPRPNVQPRP belongs 0.0253; to RRIRNRPPRLPRPRPRPNDEPRP, -0.227.
With RRIRQRPPRLPRPRPRPNYQPRP, the “shrunken log2 fold change” value is -0.491.
In the case of RRIRERPPRLPRPRPRPQRAPRP, the “shrunken log2 fold change” value is 0.254.
Consider RRIRERPPRLPRPRPRPSQGPRP, for which the “shrunken log2 fold change” value is -0.153.
Next, RRIRSRPPRLPRPRPRPCRHPRP: 0.063; RRIRARPPRLPRPRPRPTEPPRP: 0.797.
As for RRIRKRPPRLPRPRPRPSETPRP, the “shrunken log2 fold change” value was 0.0356.
With RRIRGRPPRLPRPRPRPSQYPRP, the “shrunken log2 fold change” value is -0.034.
To RRIRDRPPRLPRPRPRPKFHPRP belongs -0.362; to RRIRMRPPRLPRPRPRPAGGPRP, 0.831; to RRIRIRPPRLPRPRPRPYMYPRP, -0.91.
Next, RRIRERPPRLPRPRPRPCYFPRP: -0.917; RRIRFRPPRLPRPRPRPLHHPRP: -0.434.
Next, RRIRDRPPRLPRPRPRPVGRPRP: 0.301; RRIRYRPPRLPRPRPRPPPHPRP: 0.737; RRIRCRPPRLPRPRPRPIGYPRP: -0.00724.
For the sequence RRIRMRPPRLPRPRPRPEWHPRP, the “shrunken log2 fold change” value was found to be 0.161.
As for RRIRDRPPRLPRPRPRPGQGPRP, the “shrunken log2 fold change” value came to 0.257.
Next, RRIRHRPPRLPRPRPRPYEEPRP: -0.431.
To RRIRSRPPRLPRPRPRPTSMPRP belongs -0.187.
To RRIRDRPPRLPRPRPRPELSPRP belongs 1.55; to RRIRIRPPRLPRPRPRPTRSPRP, -0.00877; to RRIRARPPRLPRPRPRPLPPPRP, 0.805.
Regarding RRIRFRPPRLPRPRPRPVTYPRP, the “shrunken log2 fold change” value was -0.557.
Next, RRIRNRPPRLPRPRPRPLQDPRP: -0.247.
Next, RRIRGRPPRLPRPRPRPNQHPRP: 0.189; RRIRNRPPRLPRPRPRPQRFPRP: -0.155; RRIRRRPPRLPRPRPRPHYWPRP: 0.0315.
Next, RRIRIRPPRLPRPRPRPGFEPRP: 3.71; RRIRVRPPRLPRPRPRPVYSPRP: -0.0974.
Regarding RRIRARPPRLPRPRPRPGPNPRP, the “shrunken log2 fold change” value was found to be 0.66.
For the sequence RRIRQRPPRLPRPRPRPNMFPRP, the “shrunken log2 fold change” value is 0.0369.
For RRIRLRPPRLPRPRPRPKRLPRP, the “shrunken log2 fold change” value is -0.0581.
Next, RRIRMRPPRLPRPRPRPYQWPRP: -0.055; RRIRQRPPRLPRPRPRPLCMPRP: -0.37.
For RRIRGRPPRLPRPRPRPGVAPRP, the “shrunken log2 fold change” value worked out at 1.53.
As for RRIRHRPPRLPRPRPRPTGCPRP, the “shrunken log2 fold change” value was -0.0228.
To RRIRRRPPRLPRPRPRPIMYPRP belongs -0.186.
To RRIRPRPPRLPRPRPRPNKTPRP belongs -0.0733.
Next, RRIRWRPPRLPRPRPRPQMPPRP: 0.135.
For RRIRPRPPRLPRPRPRPAVCPRP, the “shrunken log2 fold change” value came out at 0.245.
As to RRIRRRPPRLPRPRPRPCPPPRP, the “shrunken log2 fold change” value worked out at 0.0965.
To RRIRVRPPRLPRPRPRPRGIPRP belongs 0.235; to RRIRMRPPRLPRPRPRPRVRPRP, 0.921.
As for RRIRMRPPRLPRPRPRPQEMPRP, the “shrunken log2 fold change” value is -0.0105.
To RRIRHRPPRLPRPRPRPMIHPRP belongs -0.382; to RRIRERPPRLPRPRPRPERVPRP, -0.0309.
Take RRIRVRPPRLPRPRPRPADFPRP: the “shrunken log2 fold change” value came out at 0.0696.
To RRIRLRPPRLPRPRPRPTQFPRP belongs 0.192; to RRIRGRPPRLPRPRPRPWCVPRP, 0.121.
In the case of RRIRGRPPRLPRPRPRPAEGPRP, the “shrunken log2 fold change” value came out at 0.335.
Take RRIRIRPPRLPRPRPRPKDRPRP: the “shrunken log2 fold change” value is -0.409.
With RRIRARPPRLPRPRPRPWQWPRP, the “shrunken log2 fold change” value is -0.00151.
For the sequence RRIRARPPRLPRPRPRPPPVPRP, the “shrunken log2 fold change” value came to 1.04.
In the case of RRIRVRPPRLPRPRPRPSKMPRP, the “shrunken log2 fold change” value is -0.243.
Consider RRIRVRPPRLPRPRPRPWTTPRP, for which the “shrunken log2 fold change” value amounted to 0.115.
To RRIRCRPPRLPRPRPRPHRIPRP belongs -0.492.
As to RRIRDRPPRLPRPRPRPKIMPRP, the “shrunken log2 fold change” value is 0.199.
Next, RRIRFRPPRLPRPRPRPHFGPRP: -0.197.
Take RRIRRRPPRLPRPRPRPYKQPRP: the “shrunken log2 fold change” value is -0.286.
Next, RRIRPRPPRLPRPRPRPYVKPRP: -0.172.
To RRIRVRPPRLPRPRPRPAWDPRP belongs 0.258; to RRIRPRPPRLPRPRPRPRMEPRP, 0.197.
To RRIRCRPPRLPRPRPRPPKSPRP belongs 0.772; to RRIRNRPPRLPRPRPRPPKEPRP, -0.166; to RRIRDRPPRLPRPRPRPACSPRP, 0.386.
On to RRIRERPPRLPRPRPRPFHWPRP, for which the “shrunken log2 fold change” value was -0.0575.
RRIRTRPPRLPRPRPRPMQPPRP: the “shrunken log2 fold change” value was determined as 0.0715.
For RRIRMRPPRLPRPRPRPDWQPRP, the “shrunken log2 fold change” value amounted to 0.198.
RRIRARPPRLPRPRPRPRHAPRP: the “shrunken log2 fold change” value worked out at 0.612.
To RRIRKRPPRLPRPRPRPIHWPRP belongs 0.137; to RRIRGRPPRLPRPRPRPNRGPRP, -0.0157.
Next, RRIRIRPPRLPRPRPRPLPDPRP: 0.0943; RRIRLRPPRLPRPRPRPCMMPRP: -0.225; RRIRTRPPRLPRPRPRPVWAPRP: 0.237.
To RRIRLRPPRLPRPRPRPQKRPRP belongs 0.0648.
On to RRIRLRPPRLPRPRPRPEMCPRP, for which the “shrunken log2 fold change” value is 0.0636.
Regarding RRIRNRPPRLPRPRPRPRSNPRP, the “shrunken log2 fold change” value is -0.0866.
With RRIRWRPPRLPRPRPRPFTMPRP, the “shrunken log2 fold change” value is -0.36.
To RRIRHRPPRLPRPRPRPHNAPRP belongs -0.809; to RRIRGRPPRLPRPRPRPHLNPRP, 0.0325.
Next, RRIRFRPPRLPRPRPRPWTPPRP: -0.26; RRIRERPPRLPRPRPRPGPLPRP: -0.127; RRIRRRPPRLPRPRPRPKCCPRP: 0.00261.
Regarding RRIRVRPPRLPRPRPRPHNIPRP, the “shrunken log2 fold change” value is -0.392.
Turning to RRIRHRPPRLPRPRPRPFTNPRP, the “shrunken log2 fold change” value is -0.0272.
On to RRIRSRPPRLPRPRPRPTQAPRP, for which the “shrunken log2 fold change” value came to 0.0131.
Next, RRIRKRPPRLPRPRPRPFWVPRP: -0.175.
For RRIRHRPPRLPRPRPRPARVPRP, the “shrunken log2 fold change” value came out at 0.502.
Regarding RRIRTRPPRLPRPRPRPHIHPRP, the “shrunken log2 fold change” value was -0.102.
Take RRIRERPPRLPRPRPRPPEKPRP: the “shrunken log2 fold change” value was -0.0038.
With RRIRQRPPRLPRPRPRPIIHPRP, the “shrunken log2 fold change” value is -0.054.
In the case of RRIRRRPPRLPRPRPRPQSTPRP, the “shrunken log2 fold change” value is -0.095.
Take RRIRQRPPRLPRPRPRPILKPRP: the “shrunken log2 fold change” value came to 0.14.
To RRIRHRPPRLPRPRPRPHELPRP belongs -0.126.
On to RRIRFRPPRLPRPRPRPRAHPRP, for which the “shrunken log2 fold change” value turned out to be 0.00718.
To RRIRLRPPRLPRPRPRPCMAPRP belongs -0.311; to RRIRRRPPRLPRPRPRPADAPRP, 0.249.
Next, RRIRWRPPRLPRPRPRPRNFPRP: 0.0292; RRIRARPPRLPRPRPRPLKHPRP: -0.0681; RRIRDRPPRLPRPRPRPLKAPRP: -0.214.
On to RRIRKRPPRLPRPRPRPCVYPRP, for which the “shrunken log2 fold change” value was found to be 0.109.
With RRIRDRPPRLPRPRPRPFDMPRP, the “shrunken log2 fold change” value is 0.0213.
Turning to RRIRDRPPRLPRPRPRPKHMPRP, the “shrunken log2 fold change” value is -0.192.
Regarding RRIRVRPPRLPRPRPRPRYFPRP, the “shrunken log2 fold change” value is -0.446.
Next, RRIRTRPPRLPRPRPRPSDSPRP: -0.214.
On to RRIRQRPPRLPRPRPRPTAIPRP, for which the “shrunken log2 fold change” value is -0.248.
Take RRIRERPPRLPRPRPRPSPEPRP: the “shrunken log2 fold change” value amounted to 0.0512.
To RRIRERPPRLPRPRPRPSRCPRP belongs 0.0232.
